Laboratory results reported in US20250163163A1 (Chugai, published 2025).

T1: human IL-31R (IL-31 receptor) expressed on BaF cells (BaF/hIL-31R cells) (human, UniProt Q8NI17 20-732)
T1 sequence (looked up): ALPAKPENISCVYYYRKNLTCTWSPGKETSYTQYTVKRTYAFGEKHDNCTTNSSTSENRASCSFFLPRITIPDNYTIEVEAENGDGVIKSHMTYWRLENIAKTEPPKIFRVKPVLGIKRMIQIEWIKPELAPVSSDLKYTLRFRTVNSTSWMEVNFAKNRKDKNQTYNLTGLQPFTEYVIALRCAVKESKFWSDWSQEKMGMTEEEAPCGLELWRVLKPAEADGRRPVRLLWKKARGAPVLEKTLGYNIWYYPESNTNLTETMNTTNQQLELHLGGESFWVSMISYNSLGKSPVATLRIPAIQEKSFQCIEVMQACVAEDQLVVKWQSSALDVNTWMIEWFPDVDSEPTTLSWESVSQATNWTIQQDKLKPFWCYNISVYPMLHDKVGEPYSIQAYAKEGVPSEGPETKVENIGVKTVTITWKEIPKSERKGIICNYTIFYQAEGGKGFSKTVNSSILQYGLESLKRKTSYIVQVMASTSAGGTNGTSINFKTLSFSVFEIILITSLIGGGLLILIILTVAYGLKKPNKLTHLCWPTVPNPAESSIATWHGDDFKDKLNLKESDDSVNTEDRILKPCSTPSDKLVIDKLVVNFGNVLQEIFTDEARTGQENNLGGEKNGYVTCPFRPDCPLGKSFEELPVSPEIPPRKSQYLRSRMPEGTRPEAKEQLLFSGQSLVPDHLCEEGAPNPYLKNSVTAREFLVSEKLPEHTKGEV


Biological target: T1, human IL-31R (IL-31 receptor) expressed …
Experiment: cell-based or functional assay

Binder | Relative biological activity compared to CIM331 reference material (%); inhibition of IL-31-dependent proliferation of BaF/hIL-31R cells [%] | Relative biological activity compared to main peak (%); inhibition of IL-31-dependent proliferation of BaF/hIL-31R cells [%]
nemolizumab AE-HPLC fraction, peak b8 (Pre-Region 2), predominantly the succinimide form (Asu103 variant) (antibody, V domains shown, Asp103 (Kabat numbering position 99) altered to a succinimide residue (Asu103) at a ratio of 54.0% on peptide basis; Asp99 (Kabat 95) to succinimide 2.7%) VH: QVQLVQSGAEVKKPGASVKVSCKASGYTFTGYIMNWVRQAPGQGLEWMGLINPYNGGTDYNPQFQDRVTITADKSTSTAYMELSSLRSEDTAVYYCARDGYDDGPYTLETWGQGTLVTVSS VL: DIQMTQSPSSLSASVGDRVTITCQASEDIYSFVAWYQQKPGKAPKLLIYNAQTEAQGVPSRFSGSGSGTDFTLTISSLQPEDFATYYCQHHYDSPLTFGGGTKVEIKR | 23 | 21
nemolizumab AE-HPLC fraction, peak a4 (Post-Region) (antibody, V domains shown) VH: QVQLVQSGAEVKKPGASVKVSCKASGYTFTGYIMNWVRQAPGQGLEWMGLINPYNGGTDYNPQFQDRVTITADKSTSTAYMELSSLRSEDTAVYYCARDGYDDGPYTLETWGQGTLVTVSS VL: DIQMTQSPSSLSASVGDRVTITCQASEDIYSFVAWYQQKPGKAPKLLIYNAQTEAQGVPSRFSGSGSGTDFTLTISSLQPEDFATYYCQHHYDSPLTFGGGTKVEIKR | 90 | 82
nemolizumab AE-HPLC fraction, peak b1 (Pre-Region 1), isoAsp form (antibody, V domains shown, IsoAsp in CDR (Asp99/102/103) in HC, site not identified: two isoAsp residue-containing peptides at 11.6% and 2.7%; Asu99 1.1%, Asu102 0.2%, Asu103 4.7%) VH: QVQLVQSGAEVKKPGASVKVSCKASGYTFTGYIMNWVRQAPGQGLEWMGLINPYNGGTDYNPQFQDRVTITADKSTSTAYMELSSLRSEDTAVYYCARDGYDDGPYTLETWGQGTLVTVSS VL: DIQMTQSPSSLSASVGDRVTITCQASEDIYSFVAWYQQKPGKAPKLLIYNAQTEAQGVPSRFSGSGSGTDFTLTISSLQPEDFATYYCQHHYDSPLTFGGGTKVEIKR | 45 | 41
nemolizumab AE-HPLC fraction, peak a6 (Post-Region) (antibody, V domains shown, Deamidation at Asn55 in the CDRs of the heavy chain, 14.9%) VH: QVQLVQSGAEVKKPGASVKVSCKASGYTFTGYIMNWVRQAPGQGLEWMGLINPYNGGTDYNPQFQDRVTITADKSTSTAYMELSSLRSEDTAVYYCARDGYDDGPYTLETWGQGTLVTVSS VL: DIQMTQSPSSLSASVGDRVTITCQASEDIYSFVAWYQQKPGKAPKLLIYNAQTEAQGVPSRFSGSGSGTDFTLTISSLQPEDFATYYCQHHYDSPLTFGGGTKVEIKR | 94 | 85
nemolizumab AE-HPLC fraction, peak a5 (Post-Region) (antibody, V domains shown, Deamidation at Asn55 in HC; ratio not given) VH: QVQLVQSGAEVKKPGASVKVSCKASGYTFTGYIMNWVRQAPGQGLEWMGLINPYNGGTDYNPQFQDRVTITADKSTSTAYMELSSLRSEDTAVYYCARDGYDDGPYTLETWGQGTLVTVSS VL: DIQMTQSPSSLSASVGDRVTITCQASEDIYSFVAWYQQKPGKAPKLLIYNAQTEAQGVPSRFSGSGSGTDFTLTISSLQPEDFATYYCQHHYDSPLTFGGGTKVEIKR | 88 | 79
nemolizumab AE-HPLC fraction, peak a1 (Post-Region) (antibody, V domains shown, Deamidation at Asn384 in HC; ratio not given) VH: QVQLVQSGAEVKKPGASVKVSCKASGYTFTGYIMNWVRQAPGQGLEWMGLINPYNGGTDYNPQFQDRVTITADKSTSTAYMELSSLRSEDTAVYYCARDGYDDGPYTLETWGQGTLVTVSS VL: DIQMTQSPSSLSASVGDRVTITCQASEDIYSFVAWYQQKPGKAPKLLIYNAQTEAQGVPSRFSGSGSGTDFTLTISSLQPEDFATYYCQHHYDSPLTFGGGTKVEIKR | 110 | 100

Now from value to binder:

Relative biological activity compared to CIM331 reference material (%); inhibition of IL-31-dependent proliferation of BaF/hIL-31R cells [%] | Relative biological activity compared to main peak (%); inhibition of IL-31-dependent proliferation of BaF/hIL-31R cells [%] | Binder
110 | 100 | nemolizumab AE-HPLC fraction, peaks a2 + a3 (Post-Region) (antibody, V domains shown) VH: QVQLVQSGAEVKKPGASVKVSCKASGYTFTGYIMNWVRQAPGQGLEWMGLINPYNGGTDYNPQFQDRVTITADKSTSTAYMELSSLRSEDTAVYYCARDGYDDGPYTLETWGQGTLVTVSS VL: DIQMTQSPSSLSASVGDRVTITCQASEDIYSFVAWYQQKPGKAPKLLIYNAQTEAQGVPSRFSGSGSGTDFTLTISSLQPEDFATYYCQHHYDSPLTFGGGTKVEIKR
73 | 66 | nemolizumab AE-HPLC fraction, peaks b2 + b3 (Pre-Region 1) (antibody, V domains shown, Asu103 in HC; ratio not given) VH: QVQLVQSGAEVKKPGASVKVSCKASGYTFTGYIMNWVRQAPGQGLEWMGLINPYNGGTDYNPQFQDRVTITADKSTSTAYMELSSLRSEDTAVYYCARDGYDDGPYTLETWGQGTLVTVSS VL: DIQMTQSPSSLSASVGDRVTITCQASEDIYSFVAWYQQKPGKAPKLLIYNAQTEAQGVPSRFSGSGSGTDFTLTISSLQPEDFATYYCQHHYDSPLTFGGGTKVEIKR
89 | 80 | nemolizumab AE-HPLC fraction, peaks b4 + b5 + b6 + b7 (Pre-Region 2) (antibody, V domains shown, Asu103 in HC (succinimide at Asp103); ratio not given) VH: QVQLVQSGAEVKKPGASVKVSCKASGYTFTGYIMNWVRQAPGQGLEWMGLINPYNGGTDYNPQFQDRVTITADKSTSTAYMELSSLRSEDTAVYYCARDGYDDGPYTLETWGQGTLVTVSS VL: DIQMTQSPSSLSASVGDRVTITCQASEDIYSFVAWYQQKPGKAPKLLIYNAQTEAQGVPSRFSGSGSGTDFTLTISSLQPEDFATYYCQHHYDSPLTFGGGTKVEIKR
